Test results from paper PMC3145977, “Thermostabilisation of an Agonist-Bound Conformation of the Human Adenosine A2A Receptor” (Journal of Molecular Biology, 2011).
Numbering of substitutions follows the chain as printed. Names may count otherwise. “And” between values parts separate entries of the source, which are not always exact repeats. Equal entries are not always repeated. Where two headings read alike, the source gives them in different places. Marks after values point to notes of the source that are not given here. Blank lines part the entries; values can stand above or below the molecule they belong to.

How the values were obtained:
[1] = target: A2AR-GL26 (L48A-Q89A-T65A-A54L) (Homo sapiens, UniProt P29274, A54L/L48A/Q89A/T65A)
[^3H]NECA-bound A2AR [2] = Thermostability assay of detergent-solubilised receptor with [3H]NECA bound (ligand plus format); assay type: physicochemical, human; details: for Improvement in stability compared to WT based on t1/2 (decrease in rate of unfolding): from Fig. 2c
Method: (§1) […]. After solubilisation in DDM, A2AR was bound to Ni^2+-NTA resin, washed to reduce the DDM concentration and then eluted (see Methods). […]. An aliquot of E. coli cells (14 mL) was thawed on ice and resupended in 500 μL of buffer A [50 mM Tris–HCl (pH 7.4), 0.4 M NaCl, 250 μg/mL lysozyme (Sigma) and 1 mg/mL DNase I (Sigma), supplemented with complete ethylenediaminetetraacetic acid (EDTA)-free Protease inhibitor cocktail (Roche)] and incubated for 1 h at 4 °C. Samples were then sonicated for 1 min at 4 °C using a cup-horn sonicator. The receptors were solubilised by adding 1% DDM and incubated for 1 h at 4 °C. Insoluble material was removed by centrifugation (5 min, 13,000g, 4 °C). The solubilised receptors were partially purified with Ni-NTA agarose (Qiagen). Agarose beads (300 μL) pre-equilibrated in buffer A were added to 700 μL of solubilised receptor. […].
(§2) The sample was incubated for 45 min at 4 °C, then 30 min at the specified temperature and then 30 min at 4 °C. Receptor-bound and free radioligands were separated as previously described on mini gel-filtration columns.[26] Receptor-bound ligands were transferred to a 96-well plate (PerkinElmer) and mixed with 200 μL of Optiphase supermix (PerkinElmer). The bound ^3H-labeled ligand was determined using a 1450 Microbeta Trilux counter (1 min per sample).
(§3) For all the thermostabilisation studies carried out in our laboratory, the apparent Tm is the temperature for which 50% of the solubilised receptor remains folded after 30 min of incubation. The rate constant of the protein denaturation is a function of the temperature, and consequently, thermal denaturation of a protein can be compared to a chemical reaction for which the rate of the reaction is dependant on the temperature. Arrhenius established that any chemical reaction is temperature dependant. […]. The reference measurement representing the total binding activity of the sample A0 was considered to be measured at 4 °C. From the graphical representation t = Log10(t1/2) (Fig. 2c), we could extract a half-life for each construct at any temperature to define the improvement in stability of the various mutants compared to WT A2AR.

[^3H]ZM241385-bound A2AR [3] = target: T1, [^3H]ZM241385-bound A2AR (Homo sapiens, UniProt P29274); assay: Thermostability assay of detergent-solubilised receptor with [3H]ZM241385 bound; assay type: physicochemical; details: identical conditions; DDM
T1 construct: The library of Ala/Leu scan mutants in the receptor A2aR-(2–316) was expressed from plasmid pRG/III-hs-MBP in E. coli strain DH5α; made in house; host or cells: Escherichia coli DH5α
Method: (§4) An aliquot of E. coli cells (14 mL) was thawed on ice and resupended in 500 μL of buffer A [50 mM Tris–HCl (pH 7.4), 0.4 M NaCl, 250 μg/mL lysozyme (Sigma) and 1 mg/mL DNase I (Sigma), supplemented with complete ethylenediaminetetraacetic acid (EDTA)-free Protease inhibitor cocktail (Roche)] and incubated for 1 h at 4 °C. Samples were then sonicated for 1 min at 4 °C using a cup-horn sonicator. The receptors were solubilised by adding 1% DDM and incubated for 1 h at 4 °C. Insoluble material was removed by centrifugation (5 min, 13,000g, 4 °C). The solubilised receptors were partially purified with Ni-NTA agarose (Qiagen). Agarose beads (300 μL) pre-equilibrated in buffer A were added to 700 μL of solubilised receptor. […].
as §2

[^3H]ZM241385-bound A2AR [4] = as above; assay type: physicochemical, human
Method: as §4, §2

[^3H]NECA-bound A2AR [5] = target: T2, [^3H]NECA-bound A2AR (Homo sapiens, UniProt P29274); set-up: method as in PMID 18664584; details: solubilised in DM; cited from earlier work
T2 construct: The library of Ala/Leu scan mutants in the receptor A2aR-(2–316) was expressed from plasmid pRG/III-hs-MBP in E. coli strain DH5α; made in house; host or cells: Escherichia coli DH5α

[^3H]NECA-bound A2AR [6] = target: T3, [^3H]NECA-bound A2AR (Homo sapiens, UniProt P29274, L48A/Q89A/T65A); assay: Thermostability assay of detergent-solubilised receptor with [3H]NECA bound (ligand plus format); assay type: physicochemical; details: [3H]NECA bound
T3 construct: The library of Ala/Leu scan mutants in the receptor A2aR-(2–316) was expressed from plasmid pRG/III-hs-MBP in E. coli strain DH5α; made in house; host or cells: Escherichia coli DH5α
Method: as §1, §2, §3

A2AR-GL26 (L48A-Q89A-T65A-A54L), sequence (P29274 whole entry L48A/A54L/T65A/Q89A): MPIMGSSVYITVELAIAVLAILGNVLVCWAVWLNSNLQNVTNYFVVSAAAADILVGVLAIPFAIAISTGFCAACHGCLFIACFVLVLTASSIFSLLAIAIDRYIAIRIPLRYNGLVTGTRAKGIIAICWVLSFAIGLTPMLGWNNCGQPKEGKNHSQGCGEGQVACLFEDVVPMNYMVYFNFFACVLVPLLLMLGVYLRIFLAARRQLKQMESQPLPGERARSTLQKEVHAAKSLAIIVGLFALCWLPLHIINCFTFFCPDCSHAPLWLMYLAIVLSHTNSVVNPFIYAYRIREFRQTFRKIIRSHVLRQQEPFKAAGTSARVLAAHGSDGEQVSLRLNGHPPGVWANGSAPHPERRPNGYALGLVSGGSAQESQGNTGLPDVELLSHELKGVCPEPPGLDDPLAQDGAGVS
T2 sequence (P29274 2-316): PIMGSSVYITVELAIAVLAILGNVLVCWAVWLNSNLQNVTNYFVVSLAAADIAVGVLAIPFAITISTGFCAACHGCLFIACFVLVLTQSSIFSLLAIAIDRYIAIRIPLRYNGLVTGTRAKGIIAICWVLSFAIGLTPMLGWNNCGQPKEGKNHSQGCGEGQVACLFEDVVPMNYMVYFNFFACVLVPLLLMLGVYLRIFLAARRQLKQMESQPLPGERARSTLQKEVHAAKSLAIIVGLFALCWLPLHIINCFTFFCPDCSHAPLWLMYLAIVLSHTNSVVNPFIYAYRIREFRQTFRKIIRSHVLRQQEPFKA
T1 sequence (P29274 2-316): as above
T3 sequence (P29274 2-316 L48A/T65A/Q89A): as the sequence (P29274 2-316) above, with L47A, T64A, Q88A counted along it

Molecule: Nc1nc2ccc(Cl)cc2c2nc(-c3ccco3)nn12 [CGS15943]
Reduction of binding affinity versus WT A2AR [1]: 320 fold

Molecule: WT A2AR: wild-type human adenosine A2A receptor [reference compound]
Apparent Tm in DDM, Final values ([^3H]NECA-bound A2AR [2]; [3H]NECA bound, 0.025% DDM, replicate experiments): 28.6 ± 0.2 °C and 28.6 ± 0.2 (n = 8) °C | Apparent Tm, Agonist [^3H]NECA ([^3H]NECA-bound A2AR [2]; [3H]NECA bound, DDM, 30 min heating, single thermostability curve, estimated error ± 0.5 °C): 28.5 °C | Stability of [3H]ZM241385-bound versus [3H]NECA-bound A2AR ([^3H]ZM241385-bound A2AR [3]): 3.5 °C | Apparent Tm, Antagonist [^3H]ZM241385 ([^3H]ZM241385-bound A2AR [4]; [3H]ZM241385 bound, DDM, 30 min heating, single thermostability curve): 32.0 ± 0.1 °C | Apparent Tm, Antagonist [^3H]ZM241385 ([^3H]ZM241385-bound A2AR [4]; [3H]ZM241385 bound, DDM, 30 min heating, single thermostability curve, listed as WT): 32 °C | Apparent Tm in DM ([^3H]NECA-bound A2AR [5]): 23 °C

Binding of [^3H]ZM241385 ([^3H]ZM241385-bound A2AR [4]; at 4 °C, 100 nM radioligand): did not bind
B1: GL0: A2AR point mutant L48A, renamed GL0 (protein, UniProt P29274 1-412, looked up, variant L48A)
Adenosine receptor A2a: MPIMGSSVYITVELAIAVLAILGNVLVCWAVWLNSNLQNVTNYFVVSAAAADIAVGVLAIPFAITISTGFCAACHGCLFIACFVLVLTQSSIFSLLAIAIDRYIAIRIPLRYNGLVTGTRAKGIIAICWVLSFAIGLTPMLGWNNCGQPKEGKNHSQGCGEGQVACLFEDVVPMNYMVYFNFFACVLVPLLLMLGVYLRIFLAARRQLKQMESQPLPGERARSTLQKEVHAAKSLAIIVGLFALCWLPLHIINCFTFFCPDCSHAPLWLMYLAIVLSHTNSVVNPFIYAYRIREFRQTFRKIIRSHVLRQQEPFKAAGTSARVLAAHGSDGEQVSLRLNGHPPGVWANGSAPHPERRPNGYALGLVSGGSAQESQGNTGLPDVELLSHELKGVCPEPPGLDDPLAQDGAGVS
Apparent Tm in DDM, Single measurement ([^3H]NECA-bound A2AR [2]): 42.5 °C | Improvement in stability (apparent Tm) of NECA-bound A2AR versus WT ([^3H]NECA-bound A2AR [2]; [3H]NECA bound, DDM): 13.6 °C | Improvement in stability compared to WT based on t1/2 (decrease in rate of unfolding) ([^3H]NECA-bound A2AR [2]; [3H]NECA bound, DDM): 49 fold | Apparent Tm, Antagonist [^3H]ZM241385 ([^3H]ZM241385-bound A2AR [4]): 0 ^b °C

B2: V282A: A2AR point mutant V282A (protein, UniProt P29274 1-412, looked up, variant V282A)
Adenosine receptor A2a: B1 Adenosine receptor A2a with A48L, V282A
Apparent Tm, Antagonist [^3H]ZM241385 ([^3H]ZM241385-bound A2AR [4]): 33 °C | ΔTm, Antagonist [^3H]ZM241385 ([^3H]ZM241385-bound A2AR [4]): + 1 °C

B3: A50L: A2AR point mutant A50L (protein, UniProt P29274 1-412, looked up, variant A50L)
Adenosine receptor A2a: B1 Adenosine receptor A2a with A48L, A50L
Apparent Tm, Antagonist [^3H]ZM241385 ([^3H]ZM241385-bound A2AR [4]): 38.5 °C | ΔTm, Antagonist [^3H]ZM241385 ([^3H]ZM241385-bound A2AR [4]): + 6.5 °C

B4: S47A: A2AR point mutant S47A (protein, UniProt P29274 1-412, looked up, variant S47A)
Adenosine receptor A2a: B1 Adenosine receptor A2a with S47A, A48L
Apparent Tm, Antagonist [^3H]ZM241385 ([^3H]ZM241385-bound A2AR [4]): 25.5 °C | ΔTm, Antagonist [^3H]ZM241385 ([^3H]ZM241385-bound A2AR [4]): − 6.5 °C

B5: GL23: A2AR mutant L48A-Q89A-T65A (protein, UniProt P29274 1-412, looked up, variant L48A Q89A T65A)
Adenosine receptor A2a: B1 Adenosine receptor A2a with T65A, Q89A
Apparent Tm in DDM, Single measurement ([^3H]NECA-bound A2AR [2]): 50 °C | Improvement in stability compared to WT based on t1/2 (decrease in rate of unfolding) ([^3H]NECA-bound A2AR [2]; [3H]NECA bound, DDM): 226 fold | Improvement in stability compared to WT based on t1/2 (decrease in rate of unfolding) ([^3H]NECA-bound A2AR [2]; [3H]NECA bound, DDM, listed as A2AR-GL23): about 230 fold | Decrease in stability in DM compared with DDM ([^3H]NECA-bound A2AR [6]): 7.7 °C
